The source of these data is patent US20240124586A1 (WUXI BIOLOGICS IRELAND, published 2024).

Assay [1] addresses T1, human PD-1 on engineered CHO-S cells (W305-CHO-S.hPro1.C6) (human, UniProt Q15116 25-288).
T1 construct: whole, on cells; also called human PD-1 engineered cells; PD-1+ cells
The experiment in a line: competitive FACS on human PD-1 CHO-S cells with 5 ug/ml PD-L1 ECD.mFc (competitor: PD-L1). On the procedure: In order to test whether the bispecific antibodies could block hPD-L1 binding to hPD-1 protein, a competitive FACS was conducted. […] Plates were incubated at 4° C. for 1 hour. After wash, the binding of W315-hPro1.ECD.mFc to cell expressive human PD-1 was detected by FITC-labeled goat anti-mouse antibody (abcam 98716 1:125). The competition binding of antibodies to the cells was tested by flow cytometry and the mean fluorescence intensity (MFI) was analyzed by FlowJo.

Assay [2] has as its target T1, human PD-1 on engineered CHO-S cells …. Briefly: FACS binding to human PD-1 engineered cells. As for the experimental part:
Engineered human PD-1 expressing cells W305-CHO-S.hPro1.C6 were seeded at 1×10⁵ cells/well in U-bottom 96-well plates (COSTAR 3799). Antibodies with 3.16-fold titration in 1% BSA DPBS from 200 nM to 0.002 nM were added to the cells. The plates were incubated at 4° C. for 1 hour. After wash, […] 1:125 diluted PE-labeled goat anti-human antibody (Jackson 109-115-098) was added to each well and the plates were incubated at 4° C. for 1 hour. The binding of the antibodies onto the cells was tested by flow cytometry and the mean fluorescence intensity (MFI) was analyzed by FlowJo.
(In general: A flow cytometer gives signals particle by particle.)

The next assay concerns the target T2, hCTLA4.ECD.hFc (human).
T2 construct: ECD fused to a human Fc; not biotinylated; also called Human CTLA-4: W316-hPro1.ECD.hFc (in house)
Briefly: dual-binding ELISA (hCTLA4.ECD.hFc coated, detected with hPD-1-ECD.Biotin), sample kept 1 d in human serum at 37 C. On the procedure:
The antibodies were incubated in freshly isolated human serum at 37° C. On indicated time points, an aliquot of serum treated sample was removed from the incubator and snap frozen in liquid nitrogen, and then stored at −80° C. until ready for a dual-binding ELISA test. The frozen samples were quickly thawed immediately prior to the stability test. Briefly, plates were pre-coated with 0.5 μg/mL of hCTLA4.ECD.hFc (in house) at 4° C. overnight. After 1-hour blocking, the testing antibodies were added to the plates at various concentrations. The plates were incubated at ambient temperature for 1 hour. Following the incubation, the plates were washed three times with 300 μL per well of PBS containing 0.5% (v/v) Tween 20. Then 0.1 μg/ml hPD-1-ECD.Biotin was added to plates and the mixture was incubated for 1 hour. After washing the plates three times, Streptavidin-HRP (Lifetechnologies, #SNN1004) (1:20000 diluted) was added and incubated on the plates for 1 hour at room temperature. After washing six times with 300 μL per well of PBS containing 0.5% (v/v) Tween 20, 100 μL tetramethylbenzidine (TMB) substrate is added for the detection per well. The reaction was stopped after approximately 5 minutes by addition of 100 μL per well of 2 M HCl. The absorbance of the wells was measured at 450 nm with a multiwall plate reader (SpectraMax® M5e). […]
For orientation: ELISA stands for enzyme-linked immunosorbent assay.

The target of assay [3] is T3, human PD-1 ECD mouse Fc fusion (W305-hPro1.ECD.mFc) (human, UniProt Q15116 25-170).
T3 construct: extracellular domain; In-house protein; also called hPD-1-ECD; human PD-1 coated on the plate
T3 sequence (Q15116 25-170): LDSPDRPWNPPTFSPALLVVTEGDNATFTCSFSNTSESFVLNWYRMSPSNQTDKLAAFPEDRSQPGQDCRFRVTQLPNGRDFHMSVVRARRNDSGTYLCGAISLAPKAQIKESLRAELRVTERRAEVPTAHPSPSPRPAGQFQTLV
Briefly: dual binding ELISA, PD-1 ECD.mFc coated, detection with biotinylated CTLA-4 ECD.hFc; second antibody named, second value; PD-1 coated, biotinylated CTLA-4 detection. On the procedure:
In order to test whether the bispecific antibodies could bind to both hPD-1 and hCTLA-4, an ELISA assay was developed as below. A 96-well ELISA plate (Nunc MaxiSorp, ThermoFisher) was coated overnight at 4° C. with 0.5 μg/ml antigen-1 (hPD-1-ECD, W305-hPro1.ECD.mFc) in carbonate-bicarbonate buffer. After a 1 hour blocking step with 2% (w/v) bovine serum albumin (Pierce) dissolved in PBS, serial dilutions of the different PD-1×CTLA-4 bispecific antibodies in PBS containing 2% BSA PBS were incubated on the plates for 1 hour at room temperature. Following the incubation, plates were washed three times with 300 μL per well of PBS containing 0.5% (v/v) Tween 20. […] After washing the plates three times, Streptavidin-HRP (Lifetechnologies, #SNN1004) (1:20000 diluted) was added and incubated on the plates for 1 hour at room temperature. After washing six times with […] per well of PBS containing 0.5% (v/v) Tween 20, 100 μL tetramethylbenzidine (TMB) substrate was added for the detection per well. The reaction was stopped after approximately 5 minutes through the addition of […] per well of 2 M HCl. The absorbance of the wells was measured at 450 nm with a multiwall plate reader (SpectraMax® M5e).

The target of a further assay is human C1Q (human, UniProt P02745 23-245; P02746 28-253; P02747 29-245). The experiment in a line: ELISA, antibody coated on the plate, C1q titrated. On the procedure: ELISA Plates (Nunc) were coated with antibody samples at 3 μg/mL overnight at 4° C. After blocking and washing, C1q was gradient diluted starting from 600 μg/mL and incubated at room temperature for 2 hr. The plates were then washed and subsequently incubated with sheep anti-human C1q Ab-HRP for 1 hr. After washing, TMB substrate was added and the interaction was stopped by 2 M HCl. The absorbance at 450 nm was read using a microplate reader (Molecular Device).
human C1Q, sequence (P02745 23-245 limits assumed, chain 1 of 3): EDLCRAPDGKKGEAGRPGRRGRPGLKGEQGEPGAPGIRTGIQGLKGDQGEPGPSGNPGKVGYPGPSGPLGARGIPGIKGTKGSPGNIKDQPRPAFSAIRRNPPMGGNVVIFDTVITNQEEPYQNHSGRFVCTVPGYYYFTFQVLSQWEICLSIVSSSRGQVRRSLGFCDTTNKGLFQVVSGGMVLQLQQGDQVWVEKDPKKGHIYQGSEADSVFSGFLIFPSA
human C1Q, sequence (P02746 28-253 limits assumed, chain 2 of 3): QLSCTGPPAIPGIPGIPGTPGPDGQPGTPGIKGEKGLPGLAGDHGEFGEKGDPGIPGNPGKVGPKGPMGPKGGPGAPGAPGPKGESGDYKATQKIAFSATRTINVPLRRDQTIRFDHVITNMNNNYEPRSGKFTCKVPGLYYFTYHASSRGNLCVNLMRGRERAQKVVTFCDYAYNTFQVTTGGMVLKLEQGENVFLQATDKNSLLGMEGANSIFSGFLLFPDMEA
human C1Q, sequence (P02747 29-245 limits assumed, chain 3 of 3): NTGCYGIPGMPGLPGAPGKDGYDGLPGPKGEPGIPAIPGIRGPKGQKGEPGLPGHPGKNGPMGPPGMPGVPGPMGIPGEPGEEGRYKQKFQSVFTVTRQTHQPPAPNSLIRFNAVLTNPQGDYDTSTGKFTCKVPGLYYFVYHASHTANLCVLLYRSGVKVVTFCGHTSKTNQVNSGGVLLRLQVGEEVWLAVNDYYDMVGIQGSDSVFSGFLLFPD
The binding activity of antibodies to C1Q was tested by ELISA.

T1 sequence (Q15116 25-288, change not shown): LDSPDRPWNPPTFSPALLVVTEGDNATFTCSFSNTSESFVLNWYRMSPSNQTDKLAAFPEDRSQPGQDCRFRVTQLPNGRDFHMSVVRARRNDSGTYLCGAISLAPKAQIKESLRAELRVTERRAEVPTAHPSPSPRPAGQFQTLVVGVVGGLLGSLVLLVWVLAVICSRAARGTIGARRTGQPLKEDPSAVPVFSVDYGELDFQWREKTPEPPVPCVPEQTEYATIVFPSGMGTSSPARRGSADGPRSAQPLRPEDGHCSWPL
T2 sequence (P16410 36-161): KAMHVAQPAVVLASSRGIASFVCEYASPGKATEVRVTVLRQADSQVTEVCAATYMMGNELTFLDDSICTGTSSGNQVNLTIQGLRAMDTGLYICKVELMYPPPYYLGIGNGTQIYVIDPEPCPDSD

B1: W3248-U6T5.G25-1.uIgG4.SP, bispecific anti-PD-1 x CTLA-4 (bispecific antibody)
heavy: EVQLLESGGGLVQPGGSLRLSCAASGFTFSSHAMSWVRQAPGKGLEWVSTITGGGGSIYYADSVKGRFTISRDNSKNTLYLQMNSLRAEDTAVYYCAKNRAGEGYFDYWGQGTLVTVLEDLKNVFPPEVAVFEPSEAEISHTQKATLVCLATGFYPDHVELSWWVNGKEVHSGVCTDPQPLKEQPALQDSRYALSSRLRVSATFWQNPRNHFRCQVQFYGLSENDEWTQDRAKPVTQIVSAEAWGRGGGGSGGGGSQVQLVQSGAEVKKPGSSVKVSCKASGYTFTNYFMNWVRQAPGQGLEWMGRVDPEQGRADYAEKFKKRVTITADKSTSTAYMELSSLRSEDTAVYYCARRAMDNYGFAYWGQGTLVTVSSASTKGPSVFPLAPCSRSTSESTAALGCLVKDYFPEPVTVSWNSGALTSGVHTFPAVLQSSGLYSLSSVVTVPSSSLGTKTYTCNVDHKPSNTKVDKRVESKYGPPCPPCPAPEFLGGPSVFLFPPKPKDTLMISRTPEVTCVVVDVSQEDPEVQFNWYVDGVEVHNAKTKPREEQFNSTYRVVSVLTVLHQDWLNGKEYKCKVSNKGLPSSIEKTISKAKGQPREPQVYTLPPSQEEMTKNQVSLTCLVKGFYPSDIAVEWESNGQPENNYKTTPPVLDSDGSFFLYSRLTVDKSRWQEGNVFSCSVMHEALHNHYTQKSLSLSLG
light 1: SYELTQPLSVSVALGQTARITCGGDNIGNKDVHWYQQKPGQAPVLVIYRDSNRPSGIPEGFSGSNSGNTATLTISRAQAGDEADYYCQVWDSIWVFGGGTKLTVLPDIQNPDPAVYQLRDSKSSDKSVCLFTDFDSQTQVSQSKDSDVYITDKCVLDMRSMDFKSNSAVAWSQKSDFACANAFQNSIIPEDTFFPSPESS
light 2: EIVLTQSPDFQSVTPKEKVTITCSANSALSYMYWYQQKPDQSPKLWVHGTSNLASGVPSRFSGSGSGTDFTLTINSLEAEDAATYYCHHWSNTQWTFGGGTKVEIKRTVAAPSVFIFPPSDEQLKSGTASVVCLLNNFYPREAKVQWKVDNALQSGNSQESVTEQDSKDSTYSLSSTLTLSKADYEKHKVYACEVTHQGLSSPVTKSFNRGEC
notes: IgG4 (S228P); also called WBP3248-U6T5.G25-1-uIgG4.SP; U6T5.G25.IgG4
In the case of B1, the IC50 in assay [1] stood at 1.92 nM. Besides, the EC50 in assay [2] stood at 1.18 nM; in the assay with hCTLA4.ECD.hFc, 0.0978 nM; in assay [3], 0.071 nM.

B2: W3248-U6T1.G25R-1.uIgG4.SP, bispecific anti-PD-1 x CTLA-4 (bispecific antibody)
heavy: EVQLLESGGGLVQPGGSLRLSCAASGFTFSSHAMSWVRQAPGKGLEWVSTITGGGGSIYYADSVKGRFTISRDNSKNTLYLQMNSLRAEDTAVYYCAKNRAGEGYFDYWGQGTLVTVSSASTKGPSVFPLAPCSRSTSESTAALGCLVKDYFPEPVTVSWNSGALTSGVHTFPAVLQSSGLYSLSSVVTVPSSSLGTKTYTCNVDHKPSNTKVDKRVGGGGSGGGGSQVQLVESGGGVVQPGRSLRLSCAASGFTFSSYTMHWVRQAPGKGLEWVTFISYDGNNKYYADSVKGRFTISRDNSKNTLYLQMNSLRAEDTAIYYCARTGWLGPFDYWGQGTLVTVLEDLKNVFPPEVAVFEPSEAEISHTQKATLVCLATGFYPDHVELSWWVNGKEVHSGVCTDPQPLKEQPALQDSRYALSSRLRVSATFWQNPRNHFRCQVQFYGLSENDEWTQDRAKPVTQIVSAEAWGRYGPPCPPCPAPEFLGGPSVFLFPPKPKDTLMISRTPEVTCVVVDVSQEDPEVQFNWYVDGVEVHNAKTKPREEQFNSTYRVVSVLTVLHQDWLNGKEYKCKVSNKGLPSSIEKTISKAKGQPREPQVYTLPPSQEEMTKNQVSLTCLVKGFYPSDIAVEWESNGQPENNYKTTPPVLDSDGSFFLYSRLTVDKSRWQEGNVFSCSVMHEALHNHYTQKSLSLSLG
light 1: SYELTQPLSVSVALGQTARITCGGDNIGNKDVHWYQQKPGQAPVLVIYRDSNRPSGIPEGFSGSNSGNTATLTISRAQAGDEADYYCQVWDSIWVFGGGTKLTVLGQPKAAPSVTLFPPSSEELQANKATLVCLISDFYPGAVTVAWKADSSPVKAGVETTTPSKQSNNKYAASSYLSLTPEQWKSHKSYSCQVTHEGSTVEKTVAPTECS
light 2: not shown
notes: IgG4 (S228P); also called U6T1.G25R.IgG4
In the case of B2, the IC50 in assay [1] was determined as 1.67 nM. The EC50 in assay [2] turned out to be 0.948 nM; in the assay with hCTLA4.ECD.hFc it was 0.147 nM.

B3: W3438-T3U4.E17-1.uIgG4.SP, bispecific anti-CD3 x CD19 (bispecific antibody)
heavy 1: QVQLVQSGAEVKKPGSSVKVSCKASGFAFTDYYIHWVRQAPGQGLEWMGWISPGNVNTKYNENFKGRVTITADKSTSTAYMELSSLRSEDTAVYYCARDGYSLYYFDYWGQGTLVTVLEDLKNVFPPEVAVFEPSEAEISHTQKATLVCLATGFYPDHVELSWWVNGKEVHSGVCTDPQPLKEQPALQDSRYALSSRLRVSATFWQNPRNHFRCQVQFYGLSENDEWTQDRAKPVTQIVSAEAWGRYGPPCPPCPAPEFLGGPSVFLFPPKPKDTLMISRTPEVTCVVVDVSQEDPEVQFNWYVDGVEVHNAKTKPREEQFNSTYRVVSVLTVLHQDWLNGKEYKCKVSNKGLPSSIEKTISKAKGQPREPQVYTLPPCQEEMTKNQVSLWCLVKGFYPSDIAVEWESNGQPENNYKTTPPVLDSDGSFFLYSRLTVDKSRWQEGNVFSCSVMHEALHNHYTQKSLSLSLGK
light 1: DIVMTQSPDSLAVSLGERATINCKSSQSLLNSRTRKNYLAWYQQKPGQPPKLLIYWASTRQSGVPDRFSGSGSGTDFTLTISSLQAEDVAVYYCTQSHTLRTFGGGTKVEIKPDIQNPDPAVYQLRDSKSSDKSVCLFTDFDSQTQVSQSKDSDVYITDKCVLDMRSMDFKSNSAVAWSQKSDFACANAFQNSIIPEDTFFPSPESS
heavy 2: QMQLVQSGPEVKKPGTSVKVSCKASGYAFTSYNMYWVRQARGQRLEWIGYIDPYNGDTTYNQKFKGRVTITRDMSTSTAYMELSSLRSEDTAVYYCLTTAYAMDYWGQGTLVTVSSASTKGPSVFPLAPCSRSTSESTAALGCLVKDYFPEPVTVSWNSGALTSGVHTFPAVLQSSGLYSLSSVVTVPSSSLGTKTYTCNVDHKPSNTKVDKRVESKYGPPCPPCPAPEFLGGPSVFLFPPKPKDTLMISRTPEVTCVVVDVSQEDPEVQFNWYVDGVEVHNAKTKPREEQFNSTYRVVSVLTVLHQDWLNGKEYKCKVSNKGLPSSIEKTISKAKGQPREPQVCTLPPSQEEMTKNQVSLSCAVKGFYPSDIAVEWESNGQPENNYKTTPPVLDSDGSFFLVSRLTVDKSRWQEGNVFSCSVMHEALHNHYTQKSLSLSLGK
light 2: DIQLTQSPSFLSASVGDRVTITCSASSTVNYMHWYQQKPGKAPKLLIYSTSNLASGVPSRFSGSGSGTEFTLTISSLQPEDFATYYCHQWSSYPYTFGQGTKLEIKRTVAAPSVFIFPPSDEQLKSGTASVVCLLNNFYPREAKVQWKVDNALQSGNSQESVTEQDSKDSTYSLSSTLTLSKADYEKHKVYACEVTHQGLSSPVTKSFNRGEC
notes: also called E17-Design_2-QQQQ (IgG4); E17-IgG4; copies: 1 + 1 + 1 + 1
For the molecule B3, in the assay with human C1Q, the binding result is “no binding (tested: about 1500 nM C1q)”.

For orientation: IC50 means the concentration that inhibits the measured activity by half. A low value points to higher potency. A word on the EC50: it is the concentration at which the effect is half-maximal.
